Data from patent US4285932A, “Enzyme derivatives for use in the treatment of venous thrombosis” (Beecham Group Limited, priority 1978, dated 1981).

Test system: Human Plasmin
Assay: Deacylation (hydrolysis) of active-site blocked human plasmin, pseudo-first order rate constant followed by regain of activity on chromogenic substrate S-2251
Type: biochemical
Details: active site serine substituted human plasmin; pH 7.4, 37° C.
Procedure: The pseudo-first order rate constant is determined by hydrolysing the enzyme derivative under physiological conditions i.e. in isotonic aqueous media at pH 7.4 and at 37° C. At regular intervals aliquots are withdrawn and incubated with a chromogenic or fluorogenic protease substrate such as S-2251 (H-D-Val-Leu-Lys-p-nitroanilide 2HCl) and the rate of conversion of the substrate measured.
The hydrolysis is followed until such time as the rate of conversion of substrate reaches a maximum. The rate constant k is then calculated by plotting: […]
loge (1-^At /Amax) against t
where Amax the maximum rate at which an aliquot converts substrate and At is the rate at which an aliquot converts substrate at time t.

Molecule | Deacylation rate, Human Plasmin K sec^-1 × 10^4
3 Methyl 4-methoxybenzoyl: human plasmin, active site serine blocked by 3-methyl-4-methoxybenzoyl (acylating agent of Example 17) (protein, UniProt P00747 20-580; P00747 581-810, looked up, plasmin 3-methyl-4-methoxybenzoyl acylated active site) Plasmin heavy chain A: EPLDDYVNTQGASLFSVTKKQLGAGSIEECAAKCEEDEEFTCRAFQYHSKEQQCVIMAENRKSSIIIRMRDVVLFEKKVYLSECKTGNGKNYRGTMSKTKNGITCQKWSSTSPHRPRFSPATHPSEGLEENYCRNPDNDPQGPWCYTTDPEKRYDYCDILECEEECMHCSGENYDGKISKTMSGLECQAWDSQSPHAHGYIPSKFPNKNLKKNYCRNPDRELRPWCFTTDPNKRWELCDIPRCTTPPPSSGPTYQCLKGTGENYRGNVAVTVSGHTCQHWSAQTPHTHNRTPENFPCKNLDENYCRNPDGKRAPWCHTTNSQVRWEYCKIPSCDSSPVSTEQLAPTAPPELTPVVQDCYHGDGQSYRGTSSTTTTGKKCQSWSSMTPHRHQKTPENYPNAGLTMNYCRNPDADKGPWCFTTDPSVRWEYCNLKKCSGTEASVVAPPPVVLLPDVETPSEEDCMFGNGKGYRGKRATTVTGTPCQDWAAQEPHRHSIFTPETNPRAGLEKNYCRNPDGDVGGPWCYTTNPRKLYDYCDVPQCAAPSFDCGKPQVEPKKCPGR Plasmin light chain B: VVGGCVAHPHSWPWQVSLRTRFGMHFCGGTLISPEWVLTAAHCLEKSPRPSSYKVILGAHQEVNLEPHVQEIEVSRLFLEPTRKDIALLKLSSPAVITDKVIPACLPSPNYVVADRTECFITGWGETQGTFGAGLLKEAQLPVIENKVCNRYEFLNGRVQSTELCAGHLAGGTDSCQGDSGGPLVCFEKDKYILQGVTSWGLGCARPNKPGVYVRVSRFVTWIEGVMRNN | 0.70 sec^-1 × 10^4
O-Toloyl: human plasmin, active site serine blocked by o-toluoyl (acylating agent of Example 9) (protein, UniProt P00747 20-580; P00747 581-810, looked up, plasmin o-toluoyl acylated active site) Plasmin heavy chain A: EPLDDYVNTQGASLFSVTKKQLGAGSIEECAAKCEEDEEFTCRAFQYHSKEQQCVIMAENRKSSIIIRMRDVVLFEKKVYLSECKTGNGKNYRGTMSKTKNGITCQKWSSTSPHRPRFSPATHPSEGLEENYCRNPDNDPQGPWCYTTDPEKRYDYCDILECEEECMHCSGENYDGKISKTMSGLECQAWDSQSPHAHGYIPSKFPNKNLKKNYCRNPDRELRPWCFTTDPNKRWELCDIPRCTTPPPSSGPTYQCLKGTGENYRGNVAVTVSGHTCQHWSAQTPHTHNRTPENFPCKNLDENYCRNPDGKRAPWCHTTNSQVRWEYCKIPSCDSSPVSTEQLAPTAPPELTPVVQDCYHGDGQSYRGTSSTTTTGKKCQSWSSMTPHRHQKTPENYPNAGLTMNYCRNPDADKGPWCFTTDPSVRWEYCNLKKCSGTEASVVAPPPVVLLPDVETPSEEDCMFGNGKGYRGKRATTVTGTPCQDWAAQEPHRHSIFTPETNPRAGLEKNYCRNPDGDVGGPWCYTTNPRKLYDYCDVPQCAAPSFDCGKPQVEPKKCPGR Plasmin light chain B: VVGGCVAHPHSWPWQVSLRTRFGMHFCGGTLISPEWVLTAAHCLEKSPRPSSYKVILGAHQEVNLEPHVQEIEVSRLFLEPTRKDIALLKLSSPAVITDKVIPACLPSPNYVVADRTECFITGWGETQGTFGAGLLKEAQLPVIENKVCNRYEFLNGRVQSTELCAGHLAGGTDSCQGDSGGPLVCFEKDKYILQGVTSWGLGCARPNKPGVYVRVSRFVTWIEGVMRNN | 1.71 sec^-1 × 10^4
